Assay results from patent publication US20210388103A1 (Takeda / Millennium, published 2021).

Legend:
[1] = molecular target: T1, cynomolgus CD38 (cynomolgus monkey, UniProt Q5VAN0 1-301); experiment: cell-based or functional assay
[2] = molecular target: T2, human CD38 (human, UniProt P28907 1-300); experiment: binding to CHO cells expressing human CD38; CHO cells expressing human CD38
T2 construct: In the assays: on CHO-K1 cells transfected with full-length human CD38 cDNA, on human blood lymphocytes, RBCs, cell lines and tissue sections; also called human CD38 antigen

[3] = molecular target: T1, cynomolgus CD38; experiment: binding to monkey lymphocytes; method not described; monkey lymphocytes, not CHO cells
[4] = molecular target: T1, cynomolgus CD38; experiment: flow cytometry on CHO cells expressing cynomolgus monkey CD38; CHO cells expressing monkey CD38

T1 sequence (Q5VAN0 whole entry): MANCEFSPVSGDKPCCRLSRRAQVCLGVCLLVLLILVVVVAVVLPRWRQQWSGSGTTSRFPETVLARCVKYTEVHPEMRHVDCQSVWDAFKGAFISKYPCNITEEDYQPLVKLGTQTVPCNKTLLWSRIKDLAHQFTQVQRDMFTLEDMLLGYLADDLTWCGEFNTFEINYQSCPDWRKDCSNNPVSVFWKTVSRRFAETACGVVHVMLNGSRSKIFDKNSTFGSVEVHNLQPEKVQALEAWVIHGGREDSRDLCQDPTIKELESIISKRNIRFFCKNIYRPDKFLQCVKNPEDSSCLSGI

- cytolysis of NK cells in monkey whole blood in vitro, mean EC50 [1]: 29.6 nM
- Kd [2]: 0.7 nM
- Kd [3]: 4 nM
- EC50 [4]: 4.5 nM
B1: AB79 (antibody, human IgG1, lambda, V domains shown)
VH: EVQLLESGGGLVQPGGSLRLSCAASGFTFDDYGMSWVRQAPGKGLEWVSDISWNGGKTHYVDSVKGQFTISRDNSKNTLYLQMNSLRAEDTAVYYCARGSLFHDSSGFYFGHWGQGTLVTVSS
VL: QSVLTQPPSASGTPGQRVTISCSGSSSNIGDNYVSWYQQLPGTAPKLLIYRDSQRPSGVPDRFSGSKSGTSASLAISGLRSEDEADYYCQSYDSSLSGSVFGGGTKLTVLG
notes: Fully human IgG1 monoclonal antibody; Used unlabelled, Alexa Fluor conjugated or biotinylated, depending on the assay; also called TAK 079
